We go through 21 sequences from the DeepSol protein solubility set.

The data set in a line: soluble on expression in E. coli; label from the status in PepcDB or PDB records.
For “MRNPENVLNSLSKHSGNLNYKFERLYRVLFNEEMFYVAYQNIYSKTGNMTAGADGKTIDGMSIDRVEQLIGSLKNETYQPNPSKRTYIPKKNGKKRPLGIPSFDDKLVQEVVRMILEAIYEGSFEHTSHGFRPKRSCHTALIDIQKTFTAVKWFIEGDIKGFFDNINHDVLINILRERIADERFLRLIRKFLNAGYVEDWVFHRTYSGTPQGGIISPILANIYLDKFDKYIKEYINRFNKGVTRKGDARYKLYEQRRYRLAKKLKNEKDVKVRKQMTAEIKRLREERNNYPARNEMDSSIKRLKYVRYADDFLIGITGNLEDCKTVKEDIKNYLNEALKLELSDEKTLITNAQKPAKFLGYDVFIRRCNDLRKDKYGKTVRAFGHKPVLYLNFETMRKKLFDYKAARIAVVNGKEVWKSIVRTYMLNLDDLEIVSQFNAEIRGFYNYYSIANNSYVINSFYHIMSYSMYKVFANKYKSSVKKILLKYKKNKVFQVAYENSKGKTLYQSFYHDGFKRKKVAGNIYCDTIPRTVSITGGRNSLMERLKLQVCELCGATDKLEMHHVRKLKDLKGKSDWEKKMIARRRKTLAVCSKCHAKIDPDRRIRLNLEHHHHHH”, the “soluble on expression in E. coli” value is listed as “soluble”.

Consider “MAGTGHTPEEALALLKRGAEEIVPEEELLAKLKEGRPLTVKLGADPTRPDLHLGHAVVLRKMRQFQELGHKVVLIIGDFTGMIGDPSGRSKTRPPLTLEETRENAKTYVAQAGKILRQEPHLFELRYNSEWLEGLTFKEVVRLTSLMTVAQMLEREDFKKRYEAGIPISLHELLYPFAQAYDSVAIRADVEMGGTDQRFNLLVGREVQRAYGQSPQVCFLMPLLVGLDGREKMSKSLDNYIGLTEPPEAMFKKLMRVPDPLLPSYFRLLTDLEEEEIEALLKAGPVPAHRVLARLLTAAYALPQIPPRIDRAFYESLGYAWEAFGRDKEAGPEEVRRAEARYDEVAKGGIPEEIPEVTIPASELKEGRIWVARLFTLAGLTPSNAEARRLIQNRGLRLDGEVLTDPMLQVDLSRPRILQRGKDRFVRVRLSD”, for which the “soluble on expression in E. coli” value is “soluble”.

Turning to “MKLIITSGGTTEPIDAVRGITNHSTGQLGKLITERFLQYHHDVTLVTTKTATKPLPNKRLRIIEVETVNDLMAALKDQVPHHDILIHSMAVSDYTPVYMTDLEQVSQADNLNCFLCEHNSEPKISSASDYQVLFLKKTPKVISYVKQWNPNIKLVGFKLLVNVPQEELIKVARASLAKNHADYILANDLVDIQTGMHKALLISNNEVASADTKEAIADLLYERMTKHD”, the “soluble on expression in E. coli” value is “not soluble”.

“MSHHHHHHSMSKNILDMRNTVQIGIVVRDIEESLQNYAEFFGVEKPQWFWTDDYSKAHTKFNGRPTKARAKLAFFELGPLQLELIEPDENPSTWREFLDKNGEGIHHIAFVVKDMDRKVEELYRKGMKVIQKGDFEGGRYAYIDTLRALKVMIELLENY”: the “soluble on expression in E. coli” value is listed as “soluble”.

As to “GSHMLESSAEESLAYREDDLRGRLGKVITAVPVDGFGEVVIEGIGGTISKSAVSFDNQQISYGTTVLVVDINNGVLSVTPHEPI”, the “soluble on expression in E. coli” value is “soluble”.

Consider “MTKLGLGLSGDLGAQEIVRMLDLQPHPEGGWYRQTFQDAPGPDGRAASTCIYYLLEAEQMSAWHRVDAVETWHYYAGAPISLTLSPPDGKGASAYVLGPDLRAGCRPQVIVPTLWWQTAVSLGAWTLVGCTVAPGFRFEGFEMAPPDWTPSTGLEHHHHHH”, for which the “soluble on expression in E. coli” value is “soluble”.

With “MGVERIKAAFENGKKAFIPYVMGGDGGLEILKERIRFLDEAGASIVEIGIPFSDPVADGPTIQRAGKRALDSGVTVKGIFQALIEVRKEVQIPFVLMTYLNPVLAFGKERFIENCMEAGVDGIIVPDLPYEEQDIIAPLLREANIALIPLVTVTSPIERIKKITSESEGFVYAVTVAGVTGVRQNFKDEIHSYLEKVKSHTHLPVVAGFGISTKEHVEEMVTICDGVVVGSKVIELLENEKREEICEFIQATKQKEEA”, the “soluble on expression in E. coli” value is listed as “not soluble”.

For the sequence “MKAKITGEDDVRVGLHVTDNNGVKHKIEMEFNGEIKYHNQDGYPDKPKNRTPNGNAHVNQTCRYARYHVYQETEYTPLPPEENLPGIKKVKQAIADLSVKEFEAYFSDTYDQVLSNHPSVTPPVPHPESVPQNGYILYLIDVYLDDNDEIEAVSDIHLQYLDENGDKTQDWNDDPFPDRQPDARLQLFGKYVPSMDVFQEFVVYHLRCQLRDVYIGAGLEPPEKYRVLGRGDDDLTSRYHNDKVTIYDDYHLEEADIPGYELEFDYGFGELGKQSVINAKRKGIGAENPDDADSRLANPSQDGEEGLLETVSSVLRGSDTDQTET”, the “soluble on expression in E. coli” value is reported as “not soluble”.

As for “MRNILATILLVVMLFLVACTGNNNQLVSQSELVPENTPVDGNQIKAPEETLSSDSMYSDYNGKNIKFRFPKTWEMTEYQADYEYFIRFNLPTKNKNRAPNQVTIVISDMAEKSKNFDYQNKNIFEQYIENDNTMDISNITVDGCNGYKAVSIESETLYISFEKGDLRYDLIFMSDEGEFLELLPEVESMISSISTY”, the “soluble on expression in E. coli” value was “not soluble”.

Consider “MRPLKVALVNIPLRVPGSDAWISVPPQGYGGIQWVVANLMDGLLELGHEVFLLGAPGSPAGRPGLTVVPAGEPEEIERWLRTADVDVVHDHSGGVIGPAGLPPGTAFISSHHFTTRPVNPVGCTYSSRAQRAHCGGGDDAPVIPIPVDPARYRSAADQVAKEDFLLFMGRVSPHKGALEAAAFAHACGRRLVLAGPAWEPEYFDEITRRYGSTVEPIGEVGGERRLDLLASAHAVLAMSQAVTGPWGGIWCEPGATVVSEAAVSGTPVVGTGNGCLAEIVPSVGEVVGYGTDFAPDEARRTLAGLPASDEVRRAAVRLWGHVTIAERYVEQYRRLLAGATWK”, for which the “soluble on expression in E. coli” value is recorded as “soluble”.

Turning to “MSLKWSITQLRKYQGKPFEFDQTVSFDNLKESLDLIDLSPITIQGQLTIKSTEVVADIHITGTYTMPCARTLVPVKVPLDVTTTEVFDLEGYNQYNDDQDDVDEHYHIIKDGMVNLQDIVEDIVIIEKPMRAYSEQSDQMLTVGNGWEVIDEDQLDELAKQQEQDDSESRQVDPRLQKLQQLYDKEQEGHHHHHH”, the “soluble on expression in E. coli” value is recorded as “soluble”.

Regarding “ATMTLTDANFQQAIQGDGPVLVDFWAAWCGPCRMMAPVLEEFAEAHADKVTVAKLNVDENPETTSQFGIMSIPTLILFKGGEPVKQLIGYQPKEQLEAQLADVLQ”, the “soluble on expression in E. coli” value is “soluble”.

Take “MAHELQLIKQSSGILIPATPETSEILQSKIKLGAVLVAEFRQVRNPAFHRRFFALLNLGFEYWEPTGGAISANERKLVNGYAKFLAAYGGNESALLDAAEQYLEQIANRRVTNGISLCKSFDAYRAWVTVEAGHYDAIQLPDGTLRKHPRSIAFSSMDEVEFQQLYKSALDVLWRWILSRTFRTQREAENAAAQLMSWAG”: the “soluble on expression in E. coli” value is “not soluble”.

With “HHHHHHSSGLVPRGSHMTAQTVTGAVAAAQLGATLPHEHVIFGYPGYAGDVTLGPFDHAAALASCTETARALLARGIQTVVDATPNGCGRNPAFLREVSEATGLQILCATGFYYEGGGATTYFKFRASLGDAESEIYEMMRTEVTEGIAGTGIRAGVIKLASSRDAITPYEQLFFRAAARVQRETGVPIITHTQEGQQGPQQAELLTSLGADPARIMIGHMDGNTDPAYHRETLRHGVSIAFDRIGLQGMVGTPTDAERLSVLTTLLGEGYADRLLLSHDSIWHWLGRPPAIPEAALPAVKDWHPLHISDDILPDLRRRGITEEQVGQMTVGNPARLFG”, the “soluble on expression in E. coli” value was “soluble”.

“MGSDKIHHHHHHMKFIVSSTALFSHLQAVSRVINSKNALPILDCFLFQLEDGTLSVTVSDSETTMVTSVEVNESDSNGKFAVAAKTLLDALKEIPEQPLTFDIKPDTYEITVQYQNGKYSLMGQNADEFPQSATLGDNAVRVEMEAQILLGGINRSVFATADDELRPVMNGIYFDITTEDITMVASDGHKLVRCKTLAARGNERAAFILPKKPATLLKNLLPKESGMVVIEFDERNAVFTLESYRMVCRLIEGRYPNYNSVIPQNNPHKVTVDRMQLMGALRRVSIFSSQASSLIKLRMQENQIVVSAQDIDFSTSAEETQVCQYAGAAMSIGFKSTFLIDILNNISADEVVIELADPSRAGVIIPVEQEENEDLLMLLMPMMLND”: the “soluble on expression in E. coli” value is listed as “not soluble”.

For the sequence “MMFLNKVDKRKIALFQLLENAPMLTESKETVMQELELSEFIVNKTVAELNADFIEFGLSEDFQIVSDGIFLTLNESGTETSATLIDCYIKESLRFAMFQDFFFQRFDSVNEFALEHFVSHTLAYKEFKELKKMLENYQITINKEFHLVGNETNLREVTTLVFLQLYQRDFSLYGKKVLEQIRNFELFFSEKVHLNQRAGYAQAKCFHFLAVSLVRTQQQFYVEKKVDSQVLKQLAGDNQQNVFNWLESLQIPEPQRTNEGNYLLLFLIAEEWLQVASAALCQRFAEIQQLNRDLLSYLKIQFQLSEEVLQGFEQKVTIVHFKLFHFPIEANYSYLKMDITYFAETYTEYFSASRQFIQEQKTNPAVWDARRFLFYRYLLLMVDALPLKKVLAPITLCVDFSFGEAYNRMIQKNIEKITEWNIIFKAHVDESVQLILSDIHFVDWPEITQIIWLAPPRPVDWSHFIKTLSALRPHSGEEKKKSS”, the “soluble on expression in E. coli” value is “not soluble”.

With “KKDFTWKTNLTFSLNRNKIVDLYGDKKDDLANRWFIGQPMKVIYDLEKVGIWQTEDKELAAKYGQVPGHIRVADLDENYVIDERDYKVLGSPSPDWTAGMTNTFTYKNWDLSFYMYARIGGTYNDDFTYMFTAWDNEHWNKLNVKYWTPENHSNEYQQIGAQSYHTQVLGKISGSFLKIQNITLGYTLPENWMKKMKMKNARAYINVQNPFTFTDYLGPDPETIGEDVYKSLSLYPMTFTFGVNLTF”, the “soluble on expression in E. coli” value is given as “not soluble”.

Consider “MGSDKIHHHHHHMQATMTDKNTRELLLDAATTLFAEQGIAATTMAEIAASVGVNPAMIHYYFKTRDSLLDTIIEERIGRIIDMIWEPVTGEEDDPLIMVRDLVNRIVNTCETMLWLPSLWIREIVNEGGALREKMLNNIPIDKMNKFSAKIAEGQKQGVINSGIDSRLLIGSIIGLTMLPLATAKLRDQIPTMKGLSSEDIVCHVTALLFTGLTNPSNSDDIKKQRT”, for which the “soluble on expression in E. coli” value is listed as “not soluble”.

In the case of “MGHHHHHHSHMRKNESYLNQPAPPIPIPTLSLMGGCREHFENHWKGRARWLMPVIPALWEAKAGRSPEVRSSKPAWPTWRNPIFTKNTKISQVLELFLNYQSLICALEKQKRQKGSLAIFCWSFQGGCVSKRPDVPSLKSQKPKRKRITGRKRLSKGSWSLLFSNLGRF”, the “soluble on expression in E. coli” value is “soluble”.

For the sequence “SMFEIKKICCIGAGYVGGPTCSVIAHMCPEIRVTVVDVNESRINAWNSPTLPIYEPGLKEVVESCRGKNLFFSTNIDDAIKEADLVFISVNTPTKTYGMGKGRAADLKYIEACARRIVQNSNGYKIVTEKSAVPVRAAESIRRIFDANTKPNLNLQVLSNPEFLAEGTAIKDLKNPDRVLIGGDETPEGQRAVQALCAVYEHWVPREKILTTNTWSSELSKLAANAFLAQRISSINSISALCEATGADVEEVATAIGMDQRIGNKFLKASVGFGGSCFQKDVLNLVYLCEALNLPEVARYWQQVIDMNDYQRRRFASRIIDSLFNTVTDKKIAILGFAFKKDTGDTRESSSIYISKYLMDEGAHLHIYDPKVPREQIVVDLSHPGVSEDDQVSRLVTISKDPYEACDGAHAVVICTEWDMFKELDYERIHKKMLKPAFIFDGRRVLDGLHNELQTIGFQIETIGKKV”, the “soluble on expression in E. coli” value is “soluble”.

For “MEYHSHTVVTERKVTLLEQGQASDLTDYVANEVRVALVYNGISHTVMLASPENLEEFAIGFTLSERIVSHVNEIKGVDLEFTPEGVLIQVEITQRCFMALKQLRRNMAGRTGCGLCGVAQLEEAVKPVIRVDSDARFNIDHLQFALEQVKDNQHHFKLTGATHAAMGLDLEGQIIAAYEDIGRHIALDKLIGGCSMRHAKRPVAVLLTSRASFEMVQKAASANIQILFAMSAVTSLALELAEKSNITLIGFCRNGRATLYTHGYRLLGLNRASLAKAIAAALEHHHHHH”, the “soluble on expression in E. coli” value is reported as “not soluble”.
